According to patent publication US20220403428A1:

Target: PcPsiH, Psilocybe cubensis tryptamine 4-monooxygenase (cytochrome P450 enzyme) (Psilocybe cubensis) (UniProt P0DPA7)
Assay: cell-based or functional assay

Row | psilocin titer [mg/L] | psilocybin titer [mg/L] | extracellular accumulation of tryptamine [mg/L] | Substance
1 | 135 | 117 | – | PcCpr, putative Psilocybe cubensis cytochrome P450 reductase (enzyme)
2 | – | – | 90 | native S. cerevisiae cytochrome P450 reductase (Ncp1) (from UniProt P16603 2-691) (enzyme)
